How the values were obtained:
[1] = target: human Sp35 protein expressed on transfected cells (human) (UniProt Q96FE5); experiment: FACS, live human LINGO-1 transfected 293 cells, PE-labelled secondary antibody without primary antibody, FL2-H; Cell only 0.94 [panel 2nd Ab only]
[2] = target: human Sp35 protein expressed on transfected cells (human) (UniProt Q96FE5); experiment: FACS, live human LINGO-1 transfected 293 cells, PE-labelled secondary antibody without primary antibody, FL2-H; Cell only 4.47 [panel 2nd Ab only]
[3] = target: human Sp35 protein expressed on transfected cells (human) (UniProt Q96FE5); experiment: FACS, live human LINGO-1 transfected 293 cells, PE-labelled secondary antibody without primary antibody, FL2-H; Cell only 4.71 [panel 2nd Ab only]
[4] = target: human Sp35 protein expressed on transfected cells (human) (UniProt Q96FE5); experiment: FACS, live human LINGO-1 transfected 293 cells, PE-labelled secondary antibody without primary antibody, FL2-H; Cell only 5.81 [panel 2nd Ab only]
[5] = target: CD32; experiment: CD32 binding assay, format not described

Chain of human Sp35 protein expressed on transfected cells (human) (Q96FE5 40-620): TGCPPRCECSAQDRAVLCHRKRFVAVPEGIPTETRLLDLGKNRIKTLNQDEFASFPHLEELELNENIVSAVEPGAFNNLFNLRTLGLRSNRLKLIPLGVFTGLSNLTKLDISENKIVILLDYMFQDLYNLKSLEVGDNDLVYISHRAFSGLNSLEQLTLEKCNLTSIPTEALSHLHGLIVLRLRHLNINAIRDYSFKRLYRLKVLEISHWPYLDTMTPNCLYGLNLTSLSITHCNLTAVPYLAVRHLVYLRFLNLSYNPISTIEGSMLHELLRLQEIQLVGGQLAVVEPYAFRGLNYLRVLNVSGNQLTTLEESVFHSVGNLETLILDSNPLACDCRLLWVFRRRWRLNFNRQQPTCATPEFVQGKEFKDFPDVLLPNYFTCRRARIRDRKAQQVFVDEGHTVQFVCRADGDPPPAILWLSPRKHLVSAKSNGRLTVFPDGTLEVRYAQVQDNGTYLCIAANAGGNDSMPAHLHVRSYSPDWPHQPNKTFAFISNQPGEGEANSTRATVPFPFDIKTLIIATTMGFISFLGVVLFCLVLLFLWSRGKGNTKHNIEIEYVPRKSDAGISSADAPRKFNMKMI

Row | number over the marker gate of the FL2-H histogram [1] | (FL2-H) Geom. Mean [2] | (FL2-H) Median [3] | (FL2-H) Mean [4] | IC50 [5] [µg/mL] | Substance
1 | 5.52 | 6.6 | 6.76 | 8.78 | – | 2nd Ab only (PE-labelled secondary antibody without primary antibody)
2 | – | – | – | – | 25 | Li33Ig2 agly (antibody)
3 | – | – | – | – | 4.3 | Li33Ig2 wt (antibody)
